# Patent CN117683122A (SHENZHEN BAY LABORATORY; UNIV TSINGHUA, dated 2024)
# Where a chain is given by its changes, count along the chain named.
# B1: 抗体B089 (antibody, V domains shown)
# VH: EVQLLESGGGVVQPGRSLRLSCAASGFTFSSYAMHWVRQAPGKGLEWVAVISYDGSNKYYADSVKGRFTISRDNSKNTLYLQMNSLRAEDTAVYYCARFSGAYSYGYGVYWGQGTPVTVSS
# VL: DIQLTQSPSFLSASVGDNVTITCRASQGIASRLAWYQQKPGKAPNLLISSSSTLQSGVPSRFTGSGYGTEFTLTMNTLQPEDSATYYCQQLNSYPLTFGGGTKVEIKR
# B2: 抗体B010 (antibody, V domains shown)
# VH: QVQLLDSGGGLVQPGGSLRLSCAASGFTFSSYAMHWVRQAPGKGLEWVAVISYDGSNKYYADSVKGRFTISRDNSKNTLYLQMNSLRAEDTAVYYCAQGWFDYWGQGTTVTVSS
# VL: NIQMTQSPSTLSASVGDRVTITCRASQSIGPWLAWYQQKPGKAPKLLIYKASSLESGVPSRFSGSGSGTEFTLTISSLQPEDFATYHCQQYKSYPYSFGQGTKVDIKR
# B3: 抗体B083 (antibody, V domains shown)
# VH: EVQLLESGGGVVRPGGSLRLSCAASGFTFGDYGMSWVRQAPGKGLEWVSGINWNGGSTGYADSVKGRFTISRDNAKNSLYLQMNSLRVEDSGVYYCARYGRVPDNWGQGTMVTVSS
# VL: NIQLTQSPSSLSASVGDRVTITCRASQGVNNWLAWYQQKPGKAPKLLIYAASTLESGVPSRFSGSGSATDFTLTINGLQPEDFATYYCQQAKRFPWTFGQGTKVEIKR
# B4: 抗体B019 (antibody, V domains shown)
# VH: QVQLLESGGTLVQPGGSLRLSCAASGFSFRTHDMNWVRQAPGKGLEWVSHISSTGSTIYYADSVKGRFTISRDNAKNSLYLQMNSLRADDTAVYYCARDRFTIFGVGPPFYYMDVWGQGTLVTVSS
# VL: DIQLTQSPSSLSASVGDRVTITCRASQGISSYLAWYQQKPGKAPKLLIYAASTLQSGVPSRFSGSGSGTDFTLTISSLQPEDFATYYCQQSYSTPRTFGQGTKVEIKR
# B5: 抗体B026 (antibody, V domains shown)
# VH: EVQLLESGGGVVQPGNSLRLSCAASGFTFSSYNMNWVRQAPGKGLEWVSSISSRSSYIYYADSVKGRFTISRDNAKNTLYLQMSSLRSEDTAVYFCVRRNGAFDIWGQGTMVTVSS
# VL: B4 VL with L4M, G28S, S30T, S31T, A34N, T53S, S93G, T94I
# B6: 抗体B161 (antibody, V domains shown)
# VH: QVQLLESGGGLVKPGGSLRLSCAASGFTFSSYSMSWVRQAPGKGLEWVSSISGGSDYIYYADPVRGRFTISRDNAKNSVYLQMNSLRAEDTAVYYCGRGITGIFNWGQGTPVTVSS
# VL: DIQLTQSPSSLSASVGDRVTITCRASQSINNYLNWYQQKPGKAPKVLIYAASSLPRGVPSRFSGSGSGTDFTLTISSLQPEDFASYYCQQSYTSPLTFGQGTKVEVKR
# Target: 重组猴痘病毒表面蛋白B6R-His (monkeypox virus, UniProt P0DTN2 20-279)
row,Binder,Kd
1,B1,< 1 nM
2,B2,< 1 nM
3,B3,< 1 nM
4,B4,< 1 nM
5,B5,< 1 nM
6,B6,< 1 nM
